Test system: T1, fluorogenic substrate (R&D systems, cat no ES007), peptide YVADAPK between a 7-methoxycoumarin (Mca) group and a 2,4-dinitrophenyl (Dnp) group
T1 sequence: YVADAPK

commercial ACE-2 from Sino Biological (cat no 10108H08H20)
enzymatic activity assay using a fluorogenic substrate: All four samples appeared to have similar levels of activity

Reference: patent US20220280633A1
